From patent US20260035478A1 (TENEOBIO, published 2026)

Legend:
[1] = target: T1, human mesothelin (MSLN) on cells (human, UniProt Q13421 296-598); assay: flow cytometry, supernatant diluted 1:5, CHO cells expressing human MSLN
T1 construct: whole, on cells; One molecule is used for human MSLN on transfected CHO cells and on HeLa cells; the cell line is named under assay; also called huMSLN
Experimental: Pelleted CHO cells were resuspended in flow buffer (1× phosphate buffered saline (PBS), 1% bovine serum albumin (BSA), and 0.1% NaN₃) at 1.25×10⁶ cells/mL. Antibody containing supernatants were diluted 1:5 in flow buffer, and 40 μL cells plus 10 μL diluted antibody supernatant were incubated for 30 minutes at 4° C. Cells were washed with flow buffer and resuspended in 50 μL phycoerythrin (PE)-conjugated secondary antibody (Southern Biotech #2042-09) diluted in flow buffer to 1.25 μg/mL and incubated for 20 minutes at 4° C. After two wash steps, cells were resuspended in flow buffer and analyzed using a Guava easyCyte 8HT system. Table E1 summarizes the target binding activity of the anti-MSLN single domain antibodies as fold over background mean fluorescence intensity (MFI) signal.

[2] = target: T2, recombinant human MSLN (R&D Systems, #3265-MS) (human, UniProt Q13421 296-580, limits assumed); assay: BLI (Octet HTX), antibody on AHC sensors, antigen in solution, 1:1 model
T2 construct: Bought reagent; It was loaded on Ni-NTA sensors for the binning, so it apparently carries a His tag; also called antigen
T2 sequence (Q13421 other isoform, or with tags, fused parts or gaps limits assumed): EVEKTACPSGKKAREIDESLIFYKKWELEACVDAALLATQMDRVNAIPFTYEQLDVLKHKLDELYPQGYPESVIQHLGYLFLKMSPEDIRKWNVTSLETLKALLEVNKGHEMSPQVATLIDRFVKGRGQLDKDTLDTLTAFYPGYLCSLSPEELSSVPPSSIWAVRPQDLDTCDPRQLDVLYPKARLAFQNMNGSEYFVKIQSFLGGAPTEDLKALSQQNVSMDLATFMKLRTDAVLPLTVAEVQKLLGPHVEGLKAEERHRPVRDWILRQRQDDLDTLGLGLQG
Experimental: Table E3 summarizes affinity and epitope bin information for example anti-MSLN single domain antibodies of the present disclosure. The affinity of each single domain antibody to recombinant human MSLN (R&D Systems, #3265-MS) was measured by Bio-layer interferometry (BLI) using an Octet HTX. AHC (Anti-hIgG Fc Capture) sensors were used to immobilize test antibody at 5 μg/mL. After baseline readings, sensors were dipped into antigen solutions (starting at 500 nM followed by a 7-point, 2-fold dilution series). Association and dissociation were measured for 180 and 240 seconds respectively. Data were analyzed with Octet Data Analysis v11.0 HT (ForteBio) using a standard 1:1 binding model. Epitope bins for the single domain antibodies were determined by an in-tandem competition BLI binding experiment using an Octet HTX. The antigen (5 μg/mL) was loaded on the sensor Ni-NTA sensor followed by a baseline in kinetic buffer. The antigen-coated sensor was then dipped into a saturating concentration Antibody 1. A second baseline was now set for 300 seconds. Then the antigen-antibody 1 complex was dipped into Antibody 2 solution for 180 seconds and then allowed to dissociate.

[3] = target: T1, human mesothelin (MSLN) on cells; assay: flow cytometry dose curve, CHO cells expressing human MSLN
Experimental: (§1) Cell-binding dose curves for example anti-MSLN single domain antibodies described herein were generated using CHO cells expressing human MSLN (FIG. 1A), Hela cells (FIG. 1B), and CHO-OFFtgt cells (FIG. 1C). The single domain antibodies were tested at a starting concentration of 150 nM, followed by 3-fold serial dilutions for an 8-point dose curve. All washes and dilutions of cells, antibodies, and reagents were performed using flow buffer (1× phosphate buffered saline (PBS), 1% bovine serum albumin (BSA), and 0.1% NaN₃). Cells were pelleted and resuspended at 1×10⁶ cells/mL in flow buffer. Then, 50 μL cells were combined with 50 μL of test antibody and incubated 30 minutes at 4° C., followed by two wash steps with flow buffer. Cells were then resuspended in 50 μL PE-conjugated secondary diluted to 1.25 μg/mL (Southern Biotech #2042-09) and incubated for 20 minutes at 4° C. After two wash steps, cells were resuspended in flow buffer and analyzed using a BD Celesta system. PE mean fluorescence intensity was plotted as a fold over background (cells incubated with secondary detection antibody only).
To determine cell binding EC50 values for example anti-MSLN single domain antibodies of the present disclosure, cell binding dose curves were generated using Hela cells and CHO cells expressing human MSLN. The single domain antibodies were tested at a starting dose of 150 nM, followed by 3-fold serial dilutions for an 8-point dose curve as described in Example 2. The transformed data were plotted as an xy-graph using the non-linear regression curve fit (available in GraphPad Prism 8.4.3) to obtain the EC50 values (nM), which are summarized in Table E2.

[4] = target: T1, human mesothelin (MSLN) on cells; assay: flow cytometry dose curve, HeLa cells
Experimental: as §1
To determine cell binding EC50 values for example anti-MSLN single domain antibodies of the present disclosure, cell binding dose curves were generated using Hela cells and CHO cells expressing human MSLN. […]

T1 sequence (Q13421 other isoform, or with tags, fused parts or gaps limits assumed): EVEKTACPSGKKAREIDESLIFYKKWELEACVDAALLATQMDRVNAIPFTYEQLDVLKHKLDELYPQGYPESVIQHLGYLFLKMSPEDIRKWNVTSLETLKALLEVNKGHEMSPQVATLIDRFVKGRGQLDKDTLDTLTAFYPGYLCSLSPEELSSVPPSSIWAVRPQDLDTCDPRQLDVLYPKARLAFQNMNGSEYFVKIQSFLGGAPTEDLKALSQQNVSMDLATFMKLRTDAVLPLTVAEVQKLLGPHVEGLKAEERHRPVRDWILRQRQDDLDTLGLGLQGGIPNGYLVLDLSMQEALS

B1: anti-MSLN single domain antibody clone 394955 (VHH)
VHH: EVQLLESGGGLVQPGGSLRLSCAASGFTFSSYAMSWVRQAPGKGLEWVSSISSSGDSTYYADSVKGRFTISRDNSKNTLYLQMNSLRAEDTAVYYCAKPPSYYDFLSDPDYWGQGTLVTVSS
notes: Human VH single domain; tested as antibody-containing supernatant
[1]
  fold over background mean fluorescence intensity (MFI): 294 fold over background

B2: anti-MSLN single domain antibody clone 394908 (VHH)
VHH: EVQLLESGGGLIQPGGSLRLSCAASGFSFSSYAMSWVRQAPGKGLEWVSNISGSGDSTYYADSVKGRFTISRDNSKNTLYLQMNSLRAEDTAVYYCAKPPSYYDFLSDPDYWGQGTLVTVSS
notes: Human VH single domain
[1]
  fold over background mean fluorescence intensity (MFI): 508 fold over background
[2]
  Kd: 64.6 nM
[3]
  EC50: 71.1 nM

B3: anti-MSLN single domain antibody clone 394925 (VHH)
VHH: EVQLLESGGGLIQPGGSLRLSCAASGFSFSSYAMSWVRQAPGKGLEWVSAISSSGDSTYYADSVKGRFTISRDNSKNTLYLQMNSLRAEDTAVYYCAKPPSYYDFLSDPDYWGQGTLVTVSS
notes: as for B1
[1]
  fold over background mean fluorescence intensity (MFI): 277 fold over background

B4: anti-MSLN single domain antibody clone 394947 (VHH)
VHH: EVQLLESGGGLIQPGGSLRLSCAASGFSFSSYAMSWVRQAPGKGLEWVSSISSSGDSTYYADSVKGRFTISRDNSKNTLYLQMKSLRAEDTAVYYCAKPPSYYDFLSDPDYWGQGTLVTVSS
notes: as for B1
[1]
  fold over background mean fluorescence intensity (MFI): 285 fold over background

B5: anti-MSLN single domain antibody clone 394979 (VHH)
VHH: EVQLLESGGGVVQPGRSLRLSCAASGFTFSSYDMHWVRQAPGKGLEWVAVISYDGSKKYSADSVKGRFTISRDNSKNTLYLQMNSLRAEDTAVYYCAKPPSYYDFLSDPDYWGQGTLVTVSS
notes: as for B1
[1]
  fold over background mean fluorescence intensity (MFI): 160 fold over background

B6: anti-MSLN single domain antibody clone 394930 (VHH)
VHH: EVQLLESGGGLIQPGGSLRLSCAASGFSFSSYAMSWVRQAPGKGLEWVSSISSSGDSTYYADSVKGRFTISRDNSKNTLYLQMNSLRAEDTAVYYCARPPSYYDFLSDPDYWGQGTLVTVSS
notes: as for B1
[1]
  fold over background mean fluorescence intensity (MFI): 540 fold over background

B7: anti-MSLN single domain antibody clone 394910 (VHH)
VHH: EVQLLESGGGLVQPGGSLRLSCAASGFSFSSYAMSWVRQAPGKGLEWVSSISSSGDSTYYADSVKGRFTISRDNSKNTLYLQMNSLRAEDTAVYYCAKPPSYYDFLSDPDYWGQGTLVTVSS
notes: as for B1
[1]
  fold over background mean fluorescence intensity (MFI): 313 fold over background

B8: anti-MSLN single domain antibody clone 394966 (VHH)
VHH: EVQLLESGGGLGQPGGSLRLSCAASGFTFSSYPMSWVRQAPGKGLEWVSAISGSGDSTYYADSVKGRFTISRDNSKNTLYLQMNSLRAEDTAVYYCAKPPSYYDFLSDPDYWGQGTLVTVSS
notes: as for B1
[1]
  fold over background mean fluorescence intensity (MFI): 356 fold over background

B9: anti-MSLN single domain antibody clone 394921 (VHH)
VHH: EVQLLESGGGLVQPGGSLRLSCAASGFTFSSYAMSWVRQAPGKGLEWVSNISGSGDSTYYADSVKGRFTISRDNSKNTLYLQMNSLRAEDTAVYYCAKPPSYYDFLSDPDYWGQGTLVTVSS
notes: as for B1
[1]
  fold over background mean fluorescence intensity (MFI): 381 fold over background

B10: anti-MSLN single domain antibody clone 394907 (VHH)
VHH: EVQLLESGGGLIQPGGSLRLSCAASGFTFSSYAMSWVRQAPGKGLEWVSSISSSGDSTYYADSVKGRFTISRDNSKNTLYLQMNSLRAEDTAVYYCAKPPSYYDFLSDPDYWGQGTLVTVSS
notes: as for B1
[1]
  fold over background mean fluorescence intensity (MFI): 429 fold over background

B11: anti-MSLN single domain antibody clone 394971 (VHH)
VHH: EVQLLESGGGLIQPGGSLRLSCAASGFSFSSYAMSWVRQAPGKGLEWVSYISGSGDSTYYADSVKGRFTISRDNSKNTLYLQMNSLRAEDTAVYYCAKPPSYYDFLSDPDYWGQGTLVTVSS
notes: as for B1
[1]
  fold over background mean fluorescence intensity (MFI): 373 fold over background

B12: anti-MSLN single domain antibody clone 394982 (VHH)
VHH: EVQLLESGGGLVQPGGSLRLSCAASGFTFTSYAMSWVRQAPGKGLEWVSSISSSGDSTYYADSVKGRFTISRDNSKNTLYLQMNSLRAEDTAVYYCAKPPSYYDFLSDPDYWGQGTLVTVSS
notes: as for B1
[1]
  fold over background mean fluorescence intensity (MFI): 405 fold over background

B13: anti-MSLN single domain antibody clone 392774 (VHH)
VHH: EVQLLESGGGLVQPGGSLRLSCAASGFTFSSYAMTWVRQAPGKGLEWVSAITGSGDSTYYADSVKGRFTISRDNSKNTLFLQMSSLRGEDTAVYYCAKPPSYYDFLSDPDYWGQGTLVTVSS
notes: Human VH single domain
[1]
  fold over background mean fluorescence intensity (MFI): 246 fold over background
[4]
  EC50: 15.6 nM
[2]
  Kd: 185 nM
[3]
  EC50: 7.2 nM

B14: anti-MSLN single domain antibody clone 394972 (VHH)
VHH: EVQLLESGGGLVQPGGSLRLSCAASGFTFSSYAMSWVRQAPGKGLEWVSAISSSGDSTYYADSVKGRFTISRDNSKNTLYLQMNSLRAEDTAVYYCAKPPSYYDFLSDPDYWGQGTLVTVSS
notes: as for B1
[1]
  fold over background mean fluorescence intensity (MFI): 477 fold over background

B15: anti-MSLN single domain antibody clone 394905 (VHH)
VHH: EVQLLESGGGLGQPGGSLRLSCAASGFTFSSYPMSWVRQAPGKGLEWVSSISSSGDSTYYADSVKGRFTISRDNSKNTLYLQMNSLRAEDTAVYYCAKPPSYYDFLSDPDYWGQGTLVTVSS
notes: as for B1
[1]
  fold over background mean fluorescence intensity (MFI): 227 fold over background

B16: anti-MSLN single domain antibody clone 394940 (VHH)
VHH: EVQLLESGGGLVQPGGSLRLSCAASGFSFSSYAMSWVRQAPGKGLEWVSSISSSGDSTYYADSVKGRFTISRDNSKNTLYLQMNSLRAEDTAVYYCARPPSYYDFLSDPDYWGQGTLVTVSS
notes: Human VH single domain ('heavy chain antibody variable domain')
[1]
  fold over background mean fluorescence intensity (MFI): 662 fold over background
[4]
  EC50: 2.6 nM
[2]
  Kd: 21 nM
[3]
  EC50: 6.5 nM

B17: anti-MSLN single domain antibody clone 394991 (VHH)
VHH: EVQLLESGGGLVQPGGSLRLSCAASGFTFSSYAMNWVRQAPGKGLEWVSSISSSGGSTYYADSVKGRFTISRDNSKNTLYLQMNSLRAEDTAVYYCARPPSYYDFLSDPDYWGQGTLVTVSS
notes: as for B1
[1]
  fold over background mean fluorescence intensity (MFI): 281 fold over background

B18: anti-MSLN single domain antibody clone 394912 (VHH)
VHH: EVQLLESGGGLIQPGGSLRLSCAASGFSFSSYAMSWVRQAPGKGLEWVSSISSSGDGTYYADSVKGRFTISRDNSKNTLYLQMNSLRAEDTAVYYCAKPPSYYDFLSDPDYWGQGTLVTVSS
notes: as for B1
[1]
  fold over background mean fluorescence intensity (MFI): 404 fold over background

B19: anti-MSLN single domain antibody clone 394985 (VHH)
VHH: EVQLLESGGGLVQPGGSLRLSCAASGFTFSSYAMSWVRQAPGKGLEWVSAITGSGDSTYYADSVKGRFTISRDNSKNTLFLQMSSLRGEDTAVYYCAKPPSYYDFLSDPDYWGQGTLVTVSS
notes: as for B1
[1]
  fold over background mean fluorescence intensity (MFI): 378 fold over background

B20: anti-MSLN single domain antibody clone 394901 (VHH)
VHH: EVQLLESGGGLIQPGGSLRLSCAASGFSFSSYAMSWVRQAPGKGLEWVSSISSSGDSTYYADSVKGRFTISRDNSKNTLYLQMNSLRAEDTAVYYCAKPPSYYDFLSDPDYWGQGTLVTVSS
notes: as for B1
[1]
  fold over background mean fluorescence intensity (MFI): 400 fold over background
